Key:
human EpCAM (CD326) = molecular target: T1, human EpCAM (CD326) (human, UniProt P16422 24-314); experiment: flow cytometry on HSC2 cells; Geo Mean FL1 against concentration; Alexa Fluor Plus 488 goat anti-mouse IgG (Example 2)
T1 construct: whole, on cells; Antigen on the surface of the human cells used in flow cytometry and cytotoxicity assays; also called EpCAM on HSC2 cells; human-EpCAM expressing 300-19 cells
T1 sequence (looked up): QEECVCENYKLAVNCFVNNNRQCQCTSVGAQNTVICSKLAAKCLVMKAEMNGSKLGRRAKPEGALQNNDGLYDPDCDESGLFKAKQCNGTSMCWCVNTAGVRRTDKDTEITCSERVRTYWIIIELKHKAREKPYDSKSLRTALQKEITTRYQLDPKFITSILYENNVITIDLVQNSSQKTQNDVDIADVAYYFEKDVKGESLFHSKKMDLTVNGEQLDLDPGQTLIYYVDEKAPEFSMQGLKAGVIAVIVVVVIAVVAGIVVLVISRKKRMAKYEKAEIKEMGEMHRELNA

[1] = molecular target: cynomolgus EpCAM (cynomolgus monkey); experiment: flow cytometry on cyno kidney epithelial cells; Geo Mean FL1 against concentration; Alexa Fluor Plus 488 goat anti-mouse IgG (Example 2)
Sequence of cynomolgus EpCAM (cynomolgus monkey) (Q1WER1 24-314): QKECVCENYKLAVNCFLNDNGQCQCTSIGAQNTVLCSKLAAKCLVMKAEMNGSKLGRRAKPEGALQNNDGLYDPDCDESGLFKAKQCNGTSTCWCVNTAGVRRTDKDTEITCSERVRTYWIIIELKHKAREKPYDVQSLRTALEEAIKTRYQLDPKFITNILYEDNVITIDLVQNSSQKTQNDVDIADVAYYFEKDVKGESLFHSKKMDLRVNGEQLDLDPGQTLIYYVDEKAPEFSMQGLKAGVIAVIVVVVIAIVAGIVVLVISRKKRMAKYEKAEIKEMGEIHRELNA

B1: mEpCAM23 (antibody, mouse IgG2b, kappa)
heavy: EVKLEESGPALVKPGASVRISCKASGYTFTNYYIHWVKQRPGQGLDYIGWIYPGNVYIQYNEKFKGKATLTADKSSSTAFMQLSSLTSEDSAVYFCARDGPWFAYWGQGTLVTVSSAKTTPPSVYPLAPGCGDTTGSSVTLGCLVKGYFPESVTVTWNSGSLSSSVHTFPALLQSGLYTMSSSVTVPSSTWPSQTVTCSVAHPASSTTVDKKLEPSGPISTINPCPPCKECHKCPAPNLEGGPSVFIFPPNIKDVLMISLTPKVTCVVVDVSEDDPDVRISWFVNNVEVHTAQTQTHREDYNSTIRVVSALPIQHQDWMSGKEFKCKVNNKDLPSPIERTISKIKGLVRAPQVYILPPPAEQLSRKDVSLTCLVVGFNPGDISVEWTSNGHTEENYKDTAPVLDSDGSYFIYSKLDIKTSKWEKTDSFSCNVRHEGLKNYYLKKTISRSPGK
light: DIVLTQTPFSNPVTLGTSASISCRSSKSLLHSDGFTYLYWFLQKPGQSPHLLIYQTSNLASGVPDRFSSSGSGTDFTLRISRVEAEDVGVYYCAQNLELPNTFGGGTKLEIKRADAAPTVSIFPPSSEQLTSGGASVVCFLNNFYPKDINVKWKIDGSERQNGVLNSWTDQDSKDSTYSMSSTLTLTKDEYERHNSYTCEATHKTSTSPIVKSFNRNEC
notes: also called muEpCAM-23; muEpCAM23
Human EpCAM (CD326)
  Kd: 0.38 nM
[1]
  Kd: 0.79 nM

Source: patent US20210403594A1 (IMMUNOGEN, published 2021)
